IntAct's records for PubMed 25910212

B1: EF-hand domain-containing protein 1 (Homo sapiens), Q5JVL4 (parent)
chain: MVSNPVHGLPFLPGTSFKDSTKTAFHRSQTLSYRNGYAIVRRPTVGIGGDRLQFNQLSQAELDELASKAPVLTYGQPKQAPPADFIPAHVAFDKKVLKFDAYFQEDVPMSTEEQYRIRQVNIYYYLEDDSMSVIEPVVENSGILQGKLIKRQRLAKNDRGDHYHWKDLNRGINITIYGKTFRVVDCDQFTQVFLESQGIELNPPEKMALDPYTELRKQPLRKYVTPSDFDQLKQFLTFDKQVLRFYAIWDDTDSMYGECRTYIIHYYLMDDTVEIREVHERNDGRDPFPLLMNRQRVPKVLVENAKNFPQCVLEISDQEVLEWYTAKDFIVGKSLTILGRTFFIYDCDPFTRRYYKEKFGITDLPRIDVSKREPPPVKQELPPYNGFGLVEDSAQNCFALIPKAPKKDVIKMLVNDNKVLRYLAVLESPIPEDKDRRFVFSYFLATDMISIFEPPVRNSGIIGGKYLGRTKVVKPYSTVDNPVYYGPSDFFIGAVIEVFGHRFIILDTDEYVLKYMESNAAQYSPEALASIQNHVRKREAPAPEAESKQTEKDPGVQELEALIDTIQKQLKDHSCKDNIREAFQIYDKEASGYVDRDMFFKICESLNVPVDDSLVKELIRMCSHGEGKINYYNFVRAFSN
partner: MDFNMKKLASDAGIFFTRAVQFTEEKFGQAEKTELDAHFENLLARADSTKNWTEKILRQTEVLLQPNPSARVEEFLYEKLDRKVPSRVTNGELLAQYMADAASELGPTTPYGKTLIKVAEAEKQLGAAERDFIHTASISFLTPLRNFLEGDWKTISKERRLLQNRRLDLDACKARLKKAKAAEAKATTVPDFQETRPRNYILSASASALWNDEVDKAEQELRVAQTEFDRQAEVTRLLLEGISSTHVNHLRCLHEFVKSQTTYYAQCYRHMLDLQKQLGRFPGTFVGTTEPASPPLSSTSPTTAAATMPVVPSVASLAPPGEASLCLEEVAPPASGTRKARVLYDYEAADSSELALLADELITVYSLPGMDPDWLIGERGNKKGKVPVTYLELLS
B2: Phakinin (Homo sapiens), Q13515 (parent)
chain: MSERRVVVDLPTSASSSMPLQRRRASFRGPRSSSSLESPPASRTNAMSGLVRAPGVYVGTAPSGCIGGLGARVTRRALGISSVFLQGLRSSGLATVPAPGLERDHGAVEDLGGCLVEYMAKVHALEQVSQELETQLRMHLESKATRSGNWGALRASWASSCQQVGEAVLENARLMLQTETIQAGADDFKERYENEQPFRKAAEEEINSLYKVIDEANLTKMDLESQIESLKEELGSLSRNYEEDVKLLHKQLAGCELEQMDAPIGTGLDDILETIRIQWERDVEKNRVEAGALLQAKQQAEVAHMSQTQEEKLAAALRVELHNTSCQVQSLQAETESLRALKRGLENTLHDAKHWHDMELQNLGAVVGRLEAELREIRAEAEQQQQERAHLLARKCQLQKDVASYHALLDREESG
partner: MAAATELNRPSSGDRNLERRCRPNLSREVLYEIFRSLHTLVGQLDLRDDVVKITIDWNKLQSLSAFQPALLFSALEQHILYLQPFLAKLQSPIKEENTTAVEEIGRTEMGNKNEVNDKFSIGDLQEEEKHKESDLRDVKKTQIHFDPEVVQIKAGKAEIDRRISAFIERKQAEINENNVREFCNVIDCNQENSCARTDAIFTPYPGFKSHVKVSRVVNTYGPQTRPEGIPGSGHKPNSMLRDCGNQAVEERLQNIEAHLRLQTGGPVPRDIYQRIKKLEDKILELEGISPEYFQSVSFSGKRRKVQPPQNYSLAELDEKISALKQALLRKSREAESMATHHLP
B3: Sulfotransferase 2B1 (Homo sapiens), O00204 (parent)
chain: MDGPAEPQIPGLWDTYEDDISEISQKLPGEYFRYKGVPFPVGLYSLESISLAENTQDVRDDDIFIITYPKSGTTWMIEIICLILKEGDPSWIRSVPIWERAPWCETIVGAFSLPDQYSPRLMSSHLPIQIFTKAFFSSKAKVIYMGRNPRDVVVSLYHYSKIAGQLKDPGTPDQFLRDFLKGEVQFGSWFDHIKGWLRMKGKDNFLFITYEELQQDLQGSVERICGFLGRPLGKEALGSVVAHSTFSAMKANTMSNYTLLPPSLLDHRRGAFLRKGVCGDWKNHFTVAQSEAFDRAYRKQMRGMPTFPWDEDPEEDGSPDPEPSPEPEPKPSLEPNTSLEREPRPNSSPSPSPGQASETPHPRPS
partner: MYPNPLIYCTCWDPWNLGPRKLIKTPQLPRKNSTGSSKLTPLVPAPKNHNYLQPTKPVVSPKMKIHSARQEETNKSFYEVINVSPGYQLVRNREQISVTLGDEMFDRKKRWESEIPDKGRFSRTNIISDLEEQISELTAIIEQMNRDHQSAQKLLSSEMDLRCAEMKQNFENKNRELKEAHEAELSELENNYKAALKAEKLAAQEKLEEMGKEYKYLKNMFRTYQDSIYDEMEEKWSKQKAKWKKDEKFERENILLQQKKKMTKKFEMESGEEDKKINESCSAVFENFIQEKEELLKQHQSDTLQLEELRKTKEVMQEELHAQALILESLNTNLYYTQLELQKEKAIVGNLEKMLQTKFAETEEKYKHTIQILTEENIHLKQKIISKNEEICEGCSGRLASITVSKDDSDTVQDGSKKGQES
B4: Sulfite oxidase, mitochondrial (Homo sapiens), P51687 (parent)
chain: MLLLHRAVVLRLQQACRLKSIPSRICIQACSTNDSFQPQRPSLTFSGDNSSTQGWRVMGTLLGLGAVLAYQDHRCRAAQESTHIYTKEEVSSHTSPETGIWVTLGSEVFDVTEFVDLHPGGPSKLMLAAGGPLEPFWALYAVHNQSHVRELLAQYKIGELNPEDKVAPTVETSDPYADDPVRHPALKVNSQRPFNAEPPPELLTENYITPNPIFFTRNHLPVPNLDPDTYRLHVVGAPGGQSLSLSLDDLHNFPRYEITVTLQCAGNRRSEMTQVKEVKGLEWRTGAISTARWAGARLCDVLAQAGHQLCETEAHVCFEGLDSDPTGTAYGASIPLARAMDPEAEVLLAYEMNGQPLPRDHGFPVRVVVPGVVGARHVKWLGRVSVQPEESYSHWQRRDYKGFSPSVDWETVDFDSAPSIQELPVQSAITEPRDGETVESGEVTIKGYAWSGGGRAVIRVDVSLDGGLTWQVAKLDGEEQRPRKAWAWRLWQLKAPVPAGQKELNIVCKAVDDGYNVQPDTVAPIWNLRGVLSNAWHRVHVYVSP
B5: Tyrosine aminotransferase (Homo sapiens), P17735 (parent)
chain: MDPYMIQMSSKGNLPSILDVHVNVGGRSSVPGKMKGRKARWSVRPSDMAKKTFNPIRAIVDNMKVKPNPNKTMISLSIGDPTVFGNLPTDPEVTQAMKDALDSGKYNGYAPSIGFLSSREEIASYYHCPEAPLEAKDVILTSGCSQAIDLCLAVLANPGQNILVPRPGFSLYKTLAESMGIEVKLYNLLPEKSWEIDLKQLEYLIDEKTACLIVNNPSNPCGSVFSKRHLQKILAVAARQCVPILADEIYGDMVFSDCKYEPLATLSTDVPILSCGGLAKRWLVPGWRLGWILIHDRRDIFGNEIRDGLVKLSQRILGPCTIVQGALKSILCRTPGEFYHNTLSFLKSNADLCYGALAAIPGLRPVRPSGAMYLMVGIEMEHFPEFENDVEFTERLVAEQSVHCLPATCFEYPNFIRVVITVPEVMMLEACSRIQEFCEQHYHCAEGSQEECDK
B6: DNA mismatch repair protein Mlh1 (Homo sapiens), P40692 (parent)
chain: MSFVAGVIRRLDETVVNRIAAGEVIQRPANAIKEMIENCLDAKSTSIQVIVKEGGLKLIQIQDNGTGIRKEDLDIVCERFTTSKLQSFEDLASISTYGFRGEALASISHVAHVTITTKTADGKCAYRASYSDGKLKAPPKPCAGNQGTQITVEDLFYNIATRRKALKNPSEEYGKILEVVGRYSVHNAGISFSVKKQGETVADVRTLPNASTVDNIRSIFGNAVSRELIEIGCEDKTLAFKMNGYISNANYSVKKCIFLLFINHRLVESTSLRKAIETVYAAYLPKNTHPFLYLSLEISPQNVDVNVHPTKHEVHFLHEESILERVQQHIESKLLGSNSSRMYFTQTLLPGLAGPSGEMVKSTTSLTSSSTSGSSDKVYAHQMVRTDSREQKLDAFLQPLSKPLSSQPQAIVTEDKTDISSGRARQQDEEMLELPAPAEVAAKNQSLEGDTTKGTSEMSEKRGPTSSNPRKRHREDSDVEMVEDDSRKEMTAACTPRRRIINLTSVLSLQEEINEQGHEVLREMLHNHSFVGCVNPQWALAQHQTKLYLLNTTKLSEELFYQILIYDFANFGVLRLSEPAPLFDLAMLALDSPESGWTEEDGPKEGLAEYIVEFLKKKAEMLADYFSLEIDEEGNLIGLPLLIDNYVPPLEGLPIFILRLATEVNWDEEKECFESLSKECAMFYSIRKQYISEESTLSGQQSEVPGSIPNSWKWTVEHIVYKALRSHILPPKHFTEDGNILQLANLPDLYKVFERC
partner: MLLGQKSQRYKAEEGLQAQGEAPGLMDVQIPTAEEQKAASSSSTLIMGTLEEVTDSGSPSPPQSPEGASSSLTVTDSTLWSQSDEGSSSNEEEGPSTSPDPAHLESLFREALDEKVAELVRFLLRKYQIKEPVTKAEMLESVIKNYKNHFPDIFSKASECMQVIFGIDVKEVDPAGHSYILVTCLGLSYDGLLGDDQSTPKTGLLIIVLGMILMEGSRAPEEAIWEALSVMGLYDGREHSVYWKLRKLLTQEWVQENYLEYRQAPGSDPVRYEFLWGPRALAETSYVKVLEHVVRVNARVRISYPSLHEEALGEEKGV

Variants of: B1
Settings: with shlb2_human SH3GLB2, Q9NR46

Q: For A394S, which “effect of a mutation on the interaction” value is on record?
A: disrupting interaction strength

Q: For T508R, which “effect of a mutation on the interaction” value is on record?
A: with no effect

Q: Which “effect of a mutation on the interaction” value does the source give for M448T here?
A: with no effect

Q: Which “effect of a mutation on the interaction” value does the source give for P77T here?
A: disrupting interaction strength

Variants of: B2
Settings: with MBIP

Q: For A407D, which “effect of a mutation on the interaction” value is on record?
A: with no effect

Q: How did the “effect of a mutation on the interaction” value turn out when R339H was run?
A: with no effect

Variants of: B3
Settings: with FLACC1, Q96Q35-2

Q: R230H was tested. Which “effect of a mutation on the interaction” value did it give?
A: with no effect

Q: D191N was tested. Which “effect of a mutation on the interaction” value did it give?
A: with no effect

Variants of: B4
Settings: with nup62_human NUP62, P37198
Chain of nup62_human NUP62, P37198 (P37198 whole entry): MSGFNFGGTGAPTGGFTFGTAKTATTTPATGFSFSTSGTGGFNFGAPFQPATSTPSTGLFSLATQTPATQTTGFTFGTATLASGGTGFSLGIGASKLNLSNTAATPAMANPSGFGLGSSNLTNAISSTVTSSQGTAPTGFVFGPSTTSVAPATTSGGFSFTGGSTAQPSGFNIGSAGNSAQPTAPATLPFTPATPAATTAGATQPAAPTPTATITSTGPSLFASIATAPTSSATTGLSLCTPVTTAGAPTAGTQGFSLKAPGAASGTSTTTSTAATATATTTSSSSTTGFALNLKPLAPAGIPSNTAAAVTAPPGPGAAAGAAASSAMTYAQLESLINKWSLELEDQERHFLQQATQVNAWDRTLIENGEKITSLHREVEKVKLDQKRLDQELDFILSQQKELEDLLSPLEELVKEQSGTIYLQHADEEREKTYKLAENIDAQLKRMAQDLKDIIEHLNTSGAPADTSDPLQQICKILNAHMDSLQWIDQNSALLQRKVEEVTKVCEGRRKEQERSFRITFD

Q: How did the “effect of a mutation on the interaction” value turn out when Q396R was run?
A: with no effect

Q: Which “effect of a mutation on the interaction” value does the source give for W450R here?
A: disrupting interaction strength

Variants of: B5
Settings: with UBE3A

Q: With R433W as the variant, how does the “effect of a mutation on the interaction” value read?
A: disrupting interaction strength

Q: For L273P, which “effect of a mutation on the interaction” value is on record?
A: disrupting interaction strength

Q: R119W was tested. Which “effect of a mutation on the interaction” value did it give?
A: with no effect

Q: Which “effect of a mutation on the interaction” value does the source give for P220S here?
A: disrupting interaction strength

Variants of: B5
Settings: with glna_human GLUL

Q: For R433W, which “effect of a mutation on the interaction” value is on record?
A: disrupting interaction strength

Q: How did the “effect of a mutation on the interaction” value turn out when L273P was run?
A: disrupting interaction strength

Q: For R119W, which “effect of a mutation on the interaction” value is on record?
A: with no effect

Q: P220S was tested. Which “effect of a mutation on the interaction” value did it give?
A: with no effect

Variants of: B6
Settings: with maga8_human MAGEA8, P43361

Q: With R472I as the variant, how does the “effect of a mutation on the interaction” value read?
A: with no effect

Q: G244D was tested. Which “effect of a mutation on the interaction” value did it give?
A: with no effect

Q: For S44F, which “effect of a mutation on the interaction” value is on record?
A: disrupting interaction strength
